Source: patent US20180327500A1 (SYMPHOGEN A S, published 2018)

Columns and labels:
Test in all cases: flow cytometry on transfected HEK293 cells;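 note: antibodies applied at 50 µg/ml, binding called specific when fluorescence exceeds the mean signal on a negative control chicken or mouse MET construct plus four SD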
LS4 = target: T1, LS4
T1 construct: human/mouse chimera on transfected HEK293 cells; also called AA 25-371
Experimental: (§1) Cut-off values defined as the average fluorescence signal of all antibodies tested at 50 μg/ml to the negative control chicken or mouse MET construct+four standard deviations were employed to discriminate background binding from specific binding for the domain exchange or blade exchange constructs.
T1 MET ECD-SV5-GPI fusion: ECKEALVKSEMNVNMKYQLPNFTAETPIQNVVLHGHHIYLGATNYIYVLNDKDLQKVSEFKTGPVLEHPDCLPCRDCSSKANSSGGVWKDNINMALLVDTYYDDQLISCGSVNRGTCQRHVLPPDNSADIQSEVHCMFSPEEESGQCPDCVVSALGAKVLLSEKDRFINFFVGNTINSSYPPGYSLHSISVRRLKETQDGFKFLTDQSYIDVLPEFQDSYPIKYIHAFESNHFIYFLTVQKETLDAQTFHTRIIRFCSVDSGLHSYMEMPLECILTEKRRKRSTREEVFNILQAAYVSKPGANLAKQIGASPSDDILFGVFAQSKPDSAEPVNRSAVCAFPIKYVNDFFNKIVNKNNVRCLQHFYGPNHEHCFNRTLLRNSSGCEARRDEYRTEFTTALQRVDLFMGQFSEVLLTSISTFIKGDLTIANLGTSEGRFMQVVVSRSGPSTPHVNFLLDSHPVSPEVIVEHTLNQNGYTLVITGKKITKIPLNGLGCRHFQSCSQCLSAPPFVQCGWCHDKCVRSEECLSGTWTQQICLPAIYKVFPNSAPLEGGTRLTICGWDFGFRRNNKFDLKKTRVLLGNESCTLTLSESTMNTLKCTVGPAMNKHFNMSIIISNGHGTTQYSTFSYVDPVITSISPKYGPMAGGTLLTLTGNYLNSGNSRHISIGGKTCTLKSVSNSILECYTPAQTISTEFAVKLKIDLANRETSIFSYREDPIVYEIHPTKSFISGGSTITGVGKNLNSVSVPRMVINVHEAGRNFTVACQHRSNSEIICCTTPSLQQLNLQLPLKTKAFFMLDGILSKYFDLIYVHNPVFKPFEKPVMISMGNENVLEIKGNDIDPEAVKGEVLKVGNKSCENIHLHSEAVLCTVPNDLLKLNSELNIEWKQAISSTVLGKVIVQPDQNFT

LS3 = target: T2, LS3
T2 construct: human/mouse chimera on transfected HEK293 cells; also called AA 25-312
Experimental: as §1
T2 MET ECD-SV5-GPI fusion: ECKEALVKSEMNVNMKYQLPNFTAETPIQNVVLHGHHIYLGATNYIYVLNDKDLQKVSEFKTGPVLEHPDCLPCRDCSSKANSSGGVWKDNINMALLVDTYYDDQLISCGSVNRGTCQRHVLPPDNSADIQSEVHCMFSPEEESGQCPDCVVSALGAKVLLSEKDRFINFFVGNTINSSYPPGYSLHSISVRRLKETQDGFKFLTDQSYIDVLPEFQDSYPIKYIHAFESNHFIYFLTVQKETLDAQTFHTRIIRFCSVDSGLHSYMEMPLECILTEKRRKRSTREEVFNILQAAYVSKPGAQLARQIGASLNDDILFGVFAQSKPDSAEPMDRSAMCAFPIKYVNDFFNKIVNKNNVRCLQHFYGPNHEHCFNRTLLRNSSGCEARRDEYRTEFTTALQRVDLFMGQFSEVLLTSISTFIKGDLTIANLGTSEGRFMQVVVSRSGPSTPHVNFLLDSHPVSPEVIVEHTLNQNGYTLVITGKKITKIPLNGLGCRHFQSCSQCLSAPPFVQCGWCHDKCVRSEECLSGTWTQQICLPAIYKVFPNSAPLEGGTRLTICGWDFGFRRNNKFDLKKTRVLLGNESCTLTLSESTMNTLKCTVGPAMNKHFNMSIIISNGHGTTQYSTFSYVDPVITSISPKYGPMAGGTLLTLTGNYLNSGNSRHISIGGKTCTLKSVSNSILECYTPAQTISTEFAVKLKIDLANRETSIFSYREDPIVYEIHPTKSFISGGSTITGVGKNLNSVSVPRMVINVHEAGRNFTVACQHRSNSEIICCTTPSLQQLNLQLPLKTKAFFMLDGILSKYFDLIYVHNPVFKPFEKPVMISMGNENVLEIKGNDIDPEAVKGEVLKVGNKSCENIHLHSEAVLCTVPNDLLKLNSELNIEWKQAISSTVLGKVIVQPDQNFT

Mouse Blade 1-7 = target: T3, Mouse Blade 1-7
T3 construct: human/mouse chimera on transfected HEK293 cells; also called AA 25-513
Experimental: as §1
T3 MET ECD-SV5-GPI fusion: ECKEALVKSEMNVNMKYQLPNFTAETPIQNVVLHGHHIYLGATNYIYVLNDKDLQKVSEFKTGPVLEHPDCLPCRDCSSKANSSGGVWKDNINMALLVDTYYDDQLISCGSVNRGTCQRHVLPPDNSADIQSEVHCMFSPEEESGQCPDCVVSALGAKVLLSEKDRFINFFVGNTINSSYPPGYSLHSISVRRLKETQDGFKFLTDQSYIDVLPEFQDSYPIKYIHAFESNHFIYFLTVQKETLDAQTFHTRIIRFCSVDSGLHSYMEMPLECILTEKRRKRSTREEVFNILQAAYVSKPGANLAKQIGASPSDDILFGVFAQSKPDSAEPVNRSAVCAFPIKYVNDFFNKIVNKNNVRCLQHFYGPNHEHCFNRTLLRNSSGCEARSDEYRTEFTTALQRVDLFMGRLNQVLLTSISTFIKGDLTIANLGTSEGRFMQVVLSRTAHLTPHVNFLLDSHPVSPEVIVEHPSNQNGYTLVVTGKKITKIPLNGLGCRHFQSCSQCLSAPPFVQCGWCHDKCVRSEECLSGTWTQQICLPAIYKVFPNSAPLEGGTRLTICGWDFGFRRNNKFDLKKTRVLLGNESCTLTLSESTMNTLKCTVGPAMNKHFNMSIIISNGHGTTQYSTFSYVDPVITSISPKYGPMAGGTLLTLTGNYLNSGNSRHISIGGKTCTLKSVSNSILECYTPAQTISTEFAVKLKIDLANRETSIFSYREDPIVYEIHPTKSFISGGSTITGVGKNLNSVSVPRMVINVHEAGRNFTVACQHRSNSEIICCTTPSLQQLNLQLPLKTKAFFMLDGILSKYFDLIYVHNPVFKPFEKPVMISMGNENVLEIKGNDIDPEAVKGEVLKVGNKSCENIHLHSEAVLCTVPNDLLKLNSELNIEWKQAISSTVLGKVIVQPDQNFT

Measured: binding result

B1: humanized antibody 9006 (antibody, human IgG1, kappa, V domains shown)
VH: QVQLVQSGSELKKPGASVKVSCKASGYTFTNFRMNWVKQAPGQGLKWMGWINTYTGEPTYVDDLKGRFVFSLDTSVSTAYLQISSLKAEDTAVYYCARKGIARAMDYWGQGTTVTVSS
VL: DIVMTQSPDSLAVSLGERATINCKSSQSLLDSGNQKNYLAWYQQKPGQPPKLLIFGASTRESGVPDRFSGSGSGTDFTLTISSLQAEDVAVYYCQNDHSYPYTFGQGTKLEIKR
notes: also called Hu9006; hu9006
no binding (tested: 50 µg/ml): all assays above

B2: humanized antibody 9338 (antibody, human IgG1, kappa, V domains shown)
VH: QVQLVQSGAEVKKPGSSVKVSCKASGYTFTSYWMHWVRQAPGQGLEWMGYINPSSGHIENNQKFKDRVTITADKSTSTAYMELSSLRSEDTAVYYCARGRFAYWGQGTLVTVSS
VL: EIVLTQSPATLSLSPGERATLSCSASSSVSSGYLYWYQQKPGQAPRLLIYSTSNLASGIPARFSGSGSGTDFTLTISSLEPEDFAVYYCHQWSSYPFTFGSGTKLEIKR
notes: also called Hu9338; hu9338
no binding (tested: 50 µg/ml): all assays above
